Measured values from patent publication US20070071675A1 (AbbVie / Abbott, published 2007).

Assays:
recombinant human IL-1α [1] = biological target: T1, recombinant human IL-1α (human, UniProt P01583 113-271); experiment: cell-based or functional assay
T1 sequence (looked up): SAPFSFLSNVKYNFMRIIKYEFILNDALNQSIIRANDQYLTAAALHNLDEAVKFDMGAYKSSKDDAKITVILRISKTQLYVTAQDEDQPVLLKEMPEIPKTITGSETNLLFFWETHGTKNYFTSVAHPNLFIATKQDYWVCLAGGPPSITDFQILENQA

recombinant human IL-1β = recombinant human IL-1β (human, UniProt P01584 117-269); experiment: cell-based or functional assay
recombinant human IL-1α [2] = biological target: T1, recombinant human IL-1α; experiment: cell-based or functional assay; remark: listed apart in the source
recombinant human IL-1α [3] = biological target: T1, recombinant human IL-1α; experiment: SPR (Biacore); end of the range tied to DVD1-Ig by the Kd values of Table 13
Procedure: The kinetics of DVD-Ig binding to rhIL1-α and rhIL1-β was determined by surface plasmon resonance-based measurements with a Biacore 3000 instrument (Biacore AB, Uppsala, Sweden) using HBS-EP (10 mM HEPES, pH 7.4, 150 mM NaCl, 3 mM EDTA, and 0.005% surfactant P20) at 25° C. All chemicals were obtained from Biacore AB (Uppsala, Sweden) or otherwise from a different source as described herein. Approximately, 5000 RU of goat anti-human IgG Fcγ fragment specific polyclonal antibody (Pierce Biotechnology Inc, Rockford, Ill.) diluted in 10 mM sodium acetate (pH 4.5) was directly immobilized across a CM5 research grade biosensor chip using a standard amine coupling kit according to manufacturer's instructions and procedures at […]. Unreacted moieties on the biosensor surface were blocked with ethanolamine. Modified carboxymethyl dextran surface in flowcell 2 and 4 was used as a reaction surface. Unmodified carboxymethyl dextran without goat anti-human IgG in flow cell 1 and 3 was used as the reference surface. […] The association and dissociation rate constants, kon (M-1s-1) and koff (s-1) were determined under a continuous flow rate of […]. […] The equilibrium dissociation constant (M) of the reaction between DVD-Ig and rhIL1α/β was then calculated from the kinetic rate constants by the following formula: KD=koff/kon. […]

human IL-12 [4] = biological target: T2, human IL-12 (human, UniProt P29459 23-219; P29460 23-328); experiment: SPR (Biacore)
T2 construct: also called hIL-12
T2 sequence (looked up) 1: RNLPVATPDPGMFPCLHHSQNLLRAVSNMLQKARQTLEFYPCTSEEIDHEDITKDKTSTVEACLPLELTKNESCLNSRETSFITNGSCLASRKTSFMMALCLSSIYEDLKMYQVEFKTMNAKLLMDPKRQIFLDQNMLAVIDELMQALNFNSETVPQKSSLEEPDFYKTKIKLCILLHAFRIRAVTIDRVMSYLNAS
T2 sequence (looked up) 2: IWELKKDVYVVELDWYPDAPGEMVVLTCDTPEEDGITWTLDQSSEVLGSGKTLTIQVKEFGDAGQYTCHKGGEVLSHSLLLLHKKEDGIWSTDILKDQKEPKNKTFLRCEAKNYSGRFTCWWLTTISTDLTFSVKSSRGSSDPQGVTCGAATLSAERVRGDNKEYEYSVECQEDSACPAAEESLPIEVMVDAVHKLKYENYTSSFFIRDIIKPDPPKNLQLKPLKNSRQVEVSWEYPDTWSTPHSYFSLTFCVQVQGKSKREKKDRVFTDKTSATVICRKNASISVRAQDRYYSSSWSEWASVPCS

human IL-18 [5] = biological target: T3, human IL-18 (human, UniProt Q14116 37-193); experiment: SPR (Biacore)
T3 construct: also called hIL-18

human IL-12 [6] = biological target: T2, human IL-12; experiment: cell-based or functional assay
human IL-18 [7] = biological target: T3, human IL-18; experiment: cell-based or functional assay

B1: hIL-1a/bDVD6a-Ig (bispecific antibody, human IgG1, kappa)
heavy: not shown
light: QIVLTQSPALMSASPGEKVTMTCSASSSVNYMYWYQQKPRSSPKPWIYLTSNLASGVPARFSGSGSGTSYSLTISSMEAEDAATYYCQQWNSNPYTFGGGTKLEMKRTVAAPSVFIFPPQIVLTQSPAIMSASPGEKVTITCSASSSVSYMHWFQQKPGASPKLWIYSTSNLASGVPARFSGSGSGTSYSLTVSRMEAEDAATYYCQQRSTYPYTFGGGTKLEIKRRTVAAPSVFIFPPSDEQLKSGTASVVCLLNNFYPREAKVQWKVDNALQSGNSQESVTEQDSKDSTYSLSSTLTLSKADYEKHKVYACEVTHQGLSSPVTKSFNRGEC
Potency (IC50) M, IL-1α, MRC-5 bioassay (recombinant human IL-1α [1]): 2.3 nM | Potency (IC50) M, IL-1β, MRC-5 bioassay (recombinant human IL-1β): 70 nM

B2: hIL-1a/bDVD1-Ig (bispecific antibody, human IgG1, kappa)
heavy: not shown
light: NIVLTQSPASLAVSLGQRATISCRASESVDSYGNSYMHWYQQKPGQPPKLLIYLASNLESGVPARFSGSGSRTDFTLTIDPVEADDAATYYCQQNNEDPFTFGSGTKLEIKRNIQMTQTTSSLSASLGDRVTISCRASQDISNCLNWYQQKPDGTVKLLIYYTSRLHSGVPSRFSGSGSGTDYSLTISNLEQEDIATYFCQQGKTLPYAFGGGTKLEINRRTVAAPSVFIFPPSDEQLKSGTASVVCLLNNFYPREAKVQWKVDNALQSGNSQESVTEQDSKDSTYSLSSTLTLSKADYEKHKVYACEVTHQGLSSPVTKSFNRGEC
notes: 13F5.G5 V domains fused directly (no linker) to the N-terminus of 3D12.E3 V domains; human Cγ1/Cκ; also called hIL-1α/βDVD1-Ig
neutralizing activity, MRC-5 bioassay, fold less than the chimeric Abs (recombinant human IL-1α [2]): 3 fold | fold lower affinity than the chimeric 3D12.E3 Ab (recombinant human IL-1α [3]): 2 to 3 fold

B3: DVD1812LL (anti-IL-18/IL-12 DVD-Ig, 18-12-C, long linker) (bispecific antibody)
heavy: EVQLVQSGTEVKKPGESLKISCKGSGYTVTSYWIGWVRQMPGKGLEWMGFIYPGDSETRYSPTFQGQVTISADKSFNTAFLQWSSLKASDTAMYYCARVGSGWYPYTFDIWGQGTMVTVSSASTKGPSVFPLAPQVQLVESGGGVVQPGRSLRLSCAASGFTFSSYGMHWVRQAPGKGLEWVAFIRYDGSNKYYADSVKGRFTISRDNSKNTLYLQMNSLRAEDTAVYYCKTHGSHDNWGQGTMVTVSS
light: EIVMTQSPATLSVSPGERATLSCRASESISSNLAWYQQKPGQAPRLFIYTASTRATDIPARFSGSGSGTEFTLTISSLQSEDFAVYYCQQYNNWPSITFGQGTRLEIKRTVAAPSVFIFPPQSVLTQPPSVSGAPGQRVTISCSGSRSNIGSNTVKWYQQLPGTAPKLLIYYNDQRPSGVPDRFSGSKSGTSASLAITGLQAEDEADYYCQSYDRYTHPALLFGTGTKVTVLG
notes: see recheck on the constant domain of the DVD1812 light chains; also called DVD1812HC-LL/DVD1812LC-LL
Kd (human IL-12 [4]): 0.113 nM | Kd (human IL-18 [5]): 0.162 nM | Potency (IC50, M), IL-12, PHA blast / PBMC assay (human IL-12 [6]): 1.18e-10 M | Potency (IC50, M), IL-18, KG-1 bioassay (human IL-18 [7]): 7.8e-11 M

B4: hIL-1a/bDVD3a-Ig (bispecific antibody, human IgG1, kappa)
heavy: not shown
light: DIVMTQSQRFMSTSVGDRVSVTCKASQNVGTNIAWYQQKPGQSPRALIYSASYRYSGVPDRFTGSGSGTDFTLTISNVQSVDLAEYFCQQYTRYPLTFGGGTKLEIKRTVAAPETTVTQSPASLSMAIGEKVTIRCITSTDIDVDMNWYQQKPGEPPKLLISQGNTLRPGVPSRFSSSGSGTDFVFIIENMLSEDVADYYCLQSDNLPLTFGAGTKLELKRRTVAAPSVFIFPPSDEQLKSGTASVVCLLNNFYPREAKVQWKVDNALQSGNSQESVTEQDSKDSTYSLSSTLTLSKADYEKHKVYACEVTHQGLSSPVTKSFNRGEC
Potency (IC50) M, IL-1α, MRC-5 bioassay (recombinant human IL-1α [1]): 0.75 nM

B5: hIL-1a/bDVD6b-Ig (bispecific antibody, human IgG1, kappa)
heavy: not shown
light: QIVLTQSPAIMSASPGEKVTITCSASSSVSYMHWFQQKPGASPKLWIYSTSNLASGVPARFSGSGSGTSYSLTVSRMEAEDAATYYCQQRSTYPYTFGGGTKLEIKRTVAAPSVFIFPPQIVLTQSPALMSASPGEKVTMTCSASSSVNYMYWYQQKPRSSPKPWIYLTSNLASGVPARFSGSGSGTSYSLTISSMEAEDAATYYCQQWNSNPYTFGGGTKLEMKRRTVAAPSVFIFPPSDEQLKSGTASVVCLLNNFYPREAKVQWKVDNALQSGNSQESVTEQDSKDSTYSLSSTLTLSKADYEKHKVYACEVTHQGLSSPVTKSFNRGEC
Potency (IC50) M, IL-1α, MRC-5 bioassay (recombinant human IL-1α [1]): 1 nM | Potency (IC50) M, IL-1β, MRC-5 bioassay (recombinant human IL-1β): 0.75 nM
